The target of series [1] is C3 mutant with trp(W) at position 1303 and glutamine at 1320.
Series [2] addresses C3 mutant with tyr(Y) at position 1303 and glutamine at 1320.
In series [3] the target is E1Q2 mutant C3 (Arg1303 changed to Glu, plus Arg1320 changed to Gln).
For series [4], the target named is mutant C3M-51 (Arg1320->Gln).
Series [5] addresses C3 mutant with cys(C) at position 1303 and glutamine at 1320.
The target in series [6] is C3 mutant with gly(G) at position 1303 and glutamine at 1320.
Series [7] addresses wild-type human C3 (expressed from the PC3 coding sequence).
Series [8] addresses mutant C3M-26 (Arg1303->Gln, Arg1320->Gln).
The target of series [9] is mutant C3M-I23 (Arg1303->Gln).

Sequence of mutant C3M-51 (Arg1320->Gln) (chain, as listed by the source, stated change not applied, chain 1 of 2): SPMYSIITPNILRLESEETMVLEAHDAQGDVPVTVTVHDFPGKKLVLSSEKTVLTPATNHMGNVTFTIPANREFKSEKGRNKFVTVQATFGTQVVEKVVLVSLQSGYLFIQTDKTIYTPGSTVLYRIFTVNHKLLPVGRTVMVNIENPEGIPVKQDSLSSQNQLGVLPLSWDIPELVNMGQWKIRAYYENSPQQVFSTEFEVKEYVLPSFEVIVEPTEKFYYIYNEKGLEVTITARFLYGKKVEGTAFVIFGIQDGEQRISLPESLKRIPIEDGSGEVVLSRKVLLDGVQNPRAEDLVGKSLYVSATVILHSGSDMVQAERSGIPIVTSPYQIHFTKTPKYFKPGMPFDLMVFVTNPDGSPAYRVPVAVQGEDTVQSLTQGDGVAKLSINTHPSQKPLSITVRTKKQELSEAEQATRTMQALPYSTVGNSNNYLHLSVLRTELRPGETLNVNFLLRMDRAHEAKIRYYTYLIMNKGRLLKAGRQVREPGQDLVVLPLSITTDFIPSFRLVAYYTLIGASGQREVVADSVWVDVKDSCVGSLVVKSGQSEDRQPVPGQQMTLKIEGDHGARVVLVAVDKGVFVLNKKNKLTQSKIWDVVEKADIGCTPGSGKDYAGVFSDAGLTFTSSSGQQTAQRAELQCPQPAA
Sequence of mutant C3M-51 (Arg1320->Gln) (chain, as listed by the source, stated change not applied, chain 2 of 2): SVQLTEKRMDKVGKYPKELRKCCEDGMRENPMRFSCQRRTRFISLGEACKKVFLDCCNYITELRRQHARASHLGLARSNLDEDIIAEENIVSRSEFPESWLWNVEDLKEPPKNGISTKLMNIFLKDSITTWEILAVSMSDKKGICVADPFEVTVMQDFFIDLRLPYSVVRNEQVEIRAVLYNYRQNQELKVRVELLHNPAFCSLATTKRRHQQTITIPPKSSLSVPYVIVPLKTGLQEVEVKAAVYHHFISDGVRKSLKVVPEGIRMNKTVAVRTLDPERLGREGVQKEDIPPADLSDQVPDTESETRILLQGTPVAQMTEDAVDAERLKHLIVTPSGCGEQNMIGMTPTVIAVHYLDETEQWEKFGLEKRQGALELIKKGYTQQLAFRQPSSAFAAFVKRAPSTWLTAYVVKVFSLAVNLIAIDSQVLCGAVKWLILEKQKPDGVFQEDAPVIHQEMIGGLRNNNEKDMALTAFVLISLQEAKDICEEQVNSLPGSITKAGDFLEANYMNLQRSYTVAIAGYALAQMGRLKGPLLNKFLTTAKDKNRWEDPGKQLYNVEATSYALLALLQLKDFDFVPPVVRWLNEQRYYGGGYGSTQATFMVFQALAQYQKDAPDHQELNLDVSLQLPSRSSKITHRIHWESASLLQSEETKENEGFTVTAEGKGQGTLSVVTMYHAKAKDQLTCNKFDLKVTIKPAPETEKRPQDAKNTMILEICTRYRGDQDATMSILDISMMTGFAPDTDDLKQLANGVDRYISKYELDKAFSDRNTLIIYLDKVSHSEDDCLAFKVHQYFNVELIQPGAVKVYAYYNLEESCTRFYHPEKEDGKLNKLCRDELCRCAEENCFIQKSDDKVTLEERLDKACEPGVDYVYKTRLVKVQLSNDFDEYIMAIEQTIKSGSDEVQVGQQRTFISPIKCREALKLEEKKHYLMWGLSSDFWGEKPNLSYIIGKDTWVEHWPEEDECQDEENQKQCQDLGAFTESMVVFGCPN
Sequence of mutant C3M-26 (Arg1303->Gln, Arg1320->Gln) (chain, as listed by the source, stated change not applied, chain 1 of 2): as the sequence (chain, as listed by the source, stated change not applied, chain 1 of 2) above
Sequence of mutant C3M-26 (Arg1303->Gln, Arg1320->Gln) (chain, as listed by the source, stated change not applied, chain 2 of 2): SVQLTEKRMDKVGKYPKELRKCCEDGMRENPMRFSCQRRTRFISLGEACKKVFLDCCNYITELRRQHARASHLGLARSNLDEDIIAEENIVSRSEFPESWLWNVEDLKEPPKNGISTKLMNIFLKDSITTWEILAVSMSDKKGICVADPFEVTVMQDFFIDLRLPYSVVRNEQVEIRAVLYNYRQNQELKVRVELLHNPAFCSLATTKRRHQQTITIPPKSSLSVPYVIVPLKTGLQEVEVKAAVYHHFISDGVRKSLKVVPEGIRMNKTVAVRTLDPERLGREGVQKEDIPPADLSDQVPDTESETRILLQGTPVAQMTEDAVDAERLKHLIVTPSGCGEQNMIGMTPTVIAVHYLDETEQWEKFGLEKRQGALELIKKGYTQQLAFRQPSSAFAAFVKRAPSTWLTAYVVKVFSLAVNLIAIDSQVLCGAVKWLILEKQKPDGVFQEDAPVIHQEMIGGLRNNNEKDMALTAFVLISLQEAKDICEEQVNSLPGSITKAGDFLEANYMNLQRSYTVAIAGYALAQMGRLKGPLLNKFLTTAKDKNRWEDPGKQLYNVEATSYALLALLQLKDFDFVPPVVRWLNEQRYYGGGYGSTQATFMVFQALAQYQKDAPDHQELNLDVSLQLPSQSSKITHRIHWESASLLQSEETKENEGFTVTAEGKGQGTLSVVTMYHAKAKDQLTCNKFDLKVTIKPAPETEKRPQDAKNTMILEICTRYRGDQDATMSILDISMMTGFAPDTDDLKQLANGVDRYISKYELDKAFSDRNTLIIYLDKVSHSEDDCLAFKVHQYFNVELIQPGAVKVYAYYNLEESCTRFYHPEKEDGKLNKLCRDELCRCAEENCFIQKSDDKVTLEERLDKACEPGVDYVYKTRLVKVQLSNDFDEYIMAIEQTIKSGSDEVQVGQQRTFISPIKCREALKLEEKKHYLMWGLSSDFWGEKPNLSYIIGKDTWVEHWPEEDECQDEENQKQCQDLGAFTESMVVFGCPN
Sequence of C3 mutant with tyr(Y) at position 1303 and glutamine at 1320 (chain, as listed by the source mutant, chain 1 of 2): as the sequence (chain, as listed by the source, stated change not applied, chain 1 of 2) above
Sequence of C3 mutant with tyr(Y) at position 1303 and glutamine at 1320 (chain, as listed by the source mutant, chain 2 of 2): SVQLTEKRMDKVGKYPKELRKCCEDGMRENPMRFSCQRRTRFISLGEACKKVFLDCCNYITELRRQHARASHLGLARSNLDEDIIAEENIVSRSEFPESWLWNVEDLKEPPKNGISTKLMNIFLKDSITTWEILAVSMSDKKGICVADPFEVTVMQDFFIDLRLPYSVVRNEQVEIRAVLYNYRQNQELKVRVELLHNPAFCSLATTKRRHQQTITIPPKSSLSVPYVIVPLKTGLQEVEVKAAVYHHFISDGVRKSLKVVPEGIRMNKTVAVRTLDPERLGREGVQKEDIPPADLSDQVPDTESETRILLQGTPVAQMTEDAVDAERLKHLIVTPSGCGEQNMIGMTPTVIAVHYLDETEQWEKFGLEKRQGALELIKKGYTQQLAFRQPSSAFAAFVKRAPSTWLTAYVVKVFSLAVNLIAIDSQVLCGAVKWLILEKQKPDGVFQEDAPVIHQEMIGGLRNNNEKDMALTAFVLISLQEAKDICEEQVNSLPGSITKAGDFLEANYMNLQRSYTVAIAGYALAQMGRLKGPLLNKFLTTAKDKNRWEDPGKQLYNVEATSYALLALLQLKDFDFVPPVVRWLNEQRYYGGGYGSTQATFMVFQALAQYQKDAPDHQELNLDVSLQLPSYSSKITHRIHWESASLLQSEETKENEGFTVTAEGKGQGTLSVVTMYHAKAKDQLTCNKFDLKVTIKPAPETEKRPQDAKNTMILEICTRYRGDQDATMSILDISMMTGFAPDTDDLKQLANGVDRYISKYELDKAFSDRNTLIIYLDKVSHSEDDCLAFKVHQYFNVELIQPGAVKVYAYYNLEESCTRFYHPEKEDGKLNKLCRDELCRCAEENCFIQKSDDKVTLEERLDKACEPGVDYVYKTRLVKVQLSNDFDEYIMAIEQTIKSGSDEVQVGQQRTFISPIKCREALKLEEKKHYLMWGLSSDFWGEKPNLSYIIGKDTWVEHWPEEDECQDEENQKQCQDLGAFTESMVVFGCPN

B1: factor I (protein)
chain: KVTYTSQEDLVEKKCLAKKYTHLSCDKVFCQPWQRCIEGTCVCKLPYQCPKNGTAVCATNRRSFPTYCQQKSLECLHPGTKFLNNGTCTAEGKFSVSLKHGNTDSEGIVEVKLVDQDKTMFICKSSWSMREANVACLDLGFQQGADTQRRFKLSDLSINSTECLHVHCRGLETSLAECTFTKRRTMGYQDFADVVCYTQKADSPMDDFFQCVNGKYISQMKACDGINDCGDQSDELCCKACQGKGFHCKSGVCIPSQYQCNGEVDCITGEDEVGCAGFASVTQEETEILTADMDAERRRIKSLLPKLSCGVKNRMHIRRKRIVGGKRAQLGDLPWQVAIKDASGITCGGIYIGGCWILTAAHCLRASKTHRYQIWTTVVDWIHPDLKRIVIEYVDRIIFHENYNAGTYQNDIALIEMKKDGNKKDCELPRSIPACVPWSPYLFQPNDTCIVSGWGREKDNERVFSLQWGEVKLISNCSKFYGNRFYEKEMECAGTYDGSIDACKGDSGGPLVCMDANNVTYVWGVVSWGENCGKPEFPGVYTKVANYFDWISYHVGRPFISQYNV
As to B1, the “Factor I-mediated cleavage at position 1303 (35S label, SDS-PAGE, autoradiography)” value was “cleavage occurs in the order: arg(R)>tyr(Y)>cys(C) and trp(W)>gln(Q)>gly(G) and glu(E)” in series [1]; “cleavage occurs in the order: arg(R)>tyr(Y)>cys(C) and trp(W)>gln(Q)>gly(G) and glu(E)” in series [2]; “cleavage occurs in the order: arg(R)>tyr(Y)>cys(C) and trp(W)>gln(Q)>gly(G) and glu(E)” in series [3]; “cleavage occurs in the order: arg(R)>tyr(Y)>cys(C) and trp(W)>gln(Q)>gly(G) and glu(E)” in series [4]; “cleavage occurs in the order: arg(R)>tyr(Y)>cys(C) and trp(W)>gln(Q)>gly(G) and glu(E)” in series [5]; “cleavage occurs in the order: arg(R)>tyr(Y)>cys(C) and trp(W)>gln(Q)>gly(G) and glu(E)” in [6]. For the same protein, the “Factor I-mediated cleavage at position 1303 (35S label, SDS-PAGE, autoradiography)” value in series [8] was “cleavage occurs in the order: arg(R)>tyr(Y)>cys(C) and trp(W)>gln(Q)>gly(G) and glu(E)”. Besides, the “cleavage of the C3b-like product by factors H and I (immunoprecipitation, western blot)” value was “the absence of a 43 kDa band indicates that it is not cleaved at the mutated Gln1320” in [4]; “It was also very resistant to the additional factors H and I (3-D) in comparison with the unmutated C3 (1) and other mutants (2 and 4)” in [8]; “no 68 kDa band was present, showing that this mutant is resistant to cleavage at the mutated Gln1303” in [9]. Also, in [7], the “cleavage of the C3b product by factors H and I (immunoprecipitation, western blot)” value was “the C3b product is further cleaved by endogenous enzymes in 1-B or added factors H and I in 1-D. The 43 kDa band indicates cleavage at Arg1320, and the 68 kDa band (visible in longer exposures) indicates cleavage at Arg1303”.

(Values after patent US7002001.)
